Publication PMC6047533

Legend:
[1] = biological target: SHH-E177A (mouse SHH with E177A, expressed from the targeted endogenous locus) (mouse); assay: SDS-resistant cross-linked form on Western blot of tissue extract
[2] = biological target: SHHN-E176A (N-terminal construct of human SHH with E176A, N-lipid containing, C-lipid lacking) (human); assay: cross-linking

Substance	stoichiometry N [1]	stoichiometry N [2]
SHH-E177A (mouse SHH with E177A, expressed from the targeted endogenous locus) (natural protein)	2	–
SHHN-E176A (N-terminal construct of human SHH with E176A, N-lipid containing, C-lipid lacking) (domain or fragment)	–	2
